In patent US20250332213A1, “EXTENDED-RELEASE INJECTABLE GEL FORMULATIONS CONTAINING ANGIOTENSIN-(1-7) OLIGOPEPTIDES OR VARIANTS THEREOF” (ProNeurogen, Inc., priority 2021, published 2025):
Where no end group is shown, it is not given here. [ ]: non-standard residue; d: D form. glycan = not defined here

Tests used:
[1] = Solubility assessment in various solvents; format: physicochemical; conditions: for Solubility (in words): in DMSO and PBS, did not require sonication
Procedure: A small sample containing the (co-)polymer of interest (e.g., PLA or PLGA) and the ANG-(1-7) oligopeptide (total sample size: ˜1 mg) was placed into a microfuge tube. The solvent of interest (e.g., DMSO, NMP, BB, and/or BzOH) was added in μL aliquots until the drug compound was in solution. The samples were left overnight to fully dissolve and were sonicated the following day, as was necessary to fully solubilize the sample. Solubility was determined when/if a clear solution was obtained.
Solubility assessment was performed for the ANG-(1-7) oligopeptide of the disclosure across multiple different solvents shown in Table 6, below. […] All other solvents required sonication to fully dissolve the ANG-(1-7) oligopeptide. DMSO is a suitable starting solvent for gel formulation evaluation.
Solubility of PNA5 in various solvents was tested and for potential use with this peptide. […] All other solvents required sonication to fully dissolve PNA5. DMSO is a suitable starting solvent for gel formulation evaluation using the PNA5 peptide. Benzyl benzoate and benzyl alcohol may also be useful solvents or solvent additives.

[2] = FDA-approved food additive; cited from earlier work

In the case of `CC[C@H](C)[C@H](NC(=O)[C@H](Cc1ccc(O)cc1)NC(=O)[C@@H](NC(=O)[C@H](CCCNC(=N)N)NC(=O)[C@@H](N)CC(=O)O)C(C)C)C(=O)N[C@@H](Cc1c[nH]cn1)C(=O)N1CCC[C@H]1C(=O)O` [ANG-(1-7), Asp-Arg-Val-Tyr-Ile-His-Pro], the “Solubility (in words)” value [1] is reported as “very high solubility”, the Concentration ([1]; solvent Benzyl Alcohol) is reported as 250000 µg/mL and the Concentration ([1]; solvent Benzyl Benzoate) is reported as 250000 µg/mL. The Concentration ([1]; solvent DMSO) was 500000 µg/mL, the Concentration ([1]; solvent Ethoxylated Castor Oil) was 250000 µg/mL and the Concentration ([1]; solvent Ethyl Laureate) was 250000 µg/mL. The Concentration ([1]; solvent Ethyl Oleate) was 250000 µg/mL, the Concentration ([1]; solvent NMP) was 250000 µg/mL and the Concentration ([1]; solvent Oleic Acid) was 250000 µg/mL. For the same compound, the Concentration ([1]; solvent PBS at pH 7.4) was 500000 µg/mL, the Concentration ([1]; solvent Polyethylene Glycol 300) was 250000 µg/mL and the Concentration ([1]; solvent Triacetin) was 250000 µg/mL. For the same compound, the Concentration ([1]; solvent Triethyl Citrate) was 250000 µg/mL.
For `CC(=O)OC[C@H]1O[C@H](OC2(COC(C)=O)O[C@H](COC(=O)C(C)C)[C@@H](OC(=O)C(C)C)[C@@H]2OC(=O)C(C)C)[C@H](OC(=O)C(C)C)[C@@H](OC(=O)C(C)C)[C@@H]1OC(=O)C(C)C` (some centres unmarked) [SAIB, sucrose acetoisobutyrate], the “safe human daily intake” value [2] is given as “up to 20 mg/kg”.
In the case of “PNA5: ANG-(1-7) variant, SEQ ID NO: 10: Asp Arg Val Tyr Ile His Ser* (glycosylated serine), carboxyl terminal NH2 ([dD][dR][dV][dY][dI][dH][dS](glycan)-NH2; reading uncertain; also: printed as Asp Arg Val Tyr Ile His Ser*)”, the Concentration ([1]; Table 9, solvent Benzyl Alcohol (BA)) is reported as 100000 µg/mL, the Concentration ([1]; Table 9, solvent Benzyl Benzoate (BB)) is reported as 100000 µg/mL and the Concentration ([1]; Table 9, solvent DMA) is reported as 100000 µg/mL. For the same compound, the Concentration ([1]; Table 9, solvent DMSO) was 500000 µg/mL, the Concentration ([1]; Table 9, solvent Ethoxylated Castor Oil) was 100000 µg/mL and the Concentration ([1]; Table 9, solvent Ethyl Laurate) was 100000 µg/mL. For the same compound, the Concentration ([1]; Table 9, solvent Ethyl Oleate) was 100000 µg/mL, the Concentration ([1]; Table 9, solvent NMP) was 100000 µg/mL and the Concentration ([1]; Table 9, solvent Oleic Acid) was 100000 µg/mL. For the same compound, the Concentration ([1]; Table 9, solvent PBS) was 100000 µg/mL, the Concentration ([1]; Table 9, solvent Polyethylene Glycol 300) was 100000 µg/mL and the Concentration ([1]; Table 9, solvent Triacetin) was 100000 µg/mL. For the same compound, the Concentration ([1]; Table 9, solvent Triethyl Citrate) was 100000 µg/mL, the “Solubility (in words)” value [1] was “high solubility” and the “Observation at 0-24 hours” value ([1]; solvent Benzyl Alcohol (BA), 100 mg/mL) was “Clear colorless, fluid”. For the same compound, the “Observation at 0-24 hours” value ([1]; solvent Benzyl Benzoate (BB), 100 mg/mL) was “Clear colorless, fluid”, the “Observation at 0-24 hours” value ([1]; solvent DMA, 100 mg/mL) was “Insoluble” and the “Observation at 0-24 hours” value ([1]; solvent DMSO, 500 mg/mL) was “Clear colorless, fluid”. For the same compound, the “Observation at 0-24 hours” value ([1]; solvent Ethoxylated Castor Oil, 100 mg/mL) was “Insoluble”, the “Observation at 0-24 hours” value ([1]; solvent Ethyl Laurate, 100 mg/mL) was “Insoluble” and the “Observation at 0-24 hours” value ([1]; solvent Ethyl Oleate, 100 mg/mL) was “Insoluble”. For the same compound, the “Observation at 0-24 hours” value ([1]; solvent NMP, 100 mg/mL) was “Insoluble”, the “Observation at 0-24 hours” value ([1]; solvent Oleic Acid, 100 mg/mL) was “Insoluble” and the “Observation at 0-24 hours” value ([1]; solvent PBS, 100 mg/mL) was “Clear colorless, fluid”. For the same compound, the “Observation at 0-24 hours” value ([1]; solvent Polyethylene Glycol 300, 100 mg/mL) was “Insoluble”, the “Observation at 0-24 hours” value ([1]; solvent Triacetin, 100 mg/mL) was “Insoluble” and the “Observation at 0-24 hours” value ([1]; solvent Triethyl Citrate, 100 mg/mL) was “Insoluble”.
